By Kd is commonly meant the free concentration of one partner at which half of the binding sites on the other are occupied at equilibrium, for simple one-to-one binding.

Here are results for one molecule from paper PMC6479716.

This experiment deals with AEDANS labelled N-ter hexahistidine tagged LMV VPg (Lettuce mosaic virus (isolate AF199)). Kind of experiment: fluorescence polarisation; steady state fluorescence anisotropy of AEDANS labelled His6 VPg* (300 nM) on addition of His6 eIF4E; 25 °C, 20 mM HEPES pH 7.5, 0.25 mM NaCl, 1 mM DTT. Background: Polarisation of emitted light reports the rotation of a fluorescent probe.

B1: N-ter hexahistidine tagged lettuce eIF4E (natural protein)
chain: MVEEIMKSEEQKLIDVNKHRGVRSDGEEDEQLEEGEIVGGDADTLSSSSSSRPGTAIAQHPLEHSWTFWFDTPSAKSKQVAWGSSMRPIYTFSSVEEFWSLYNNIHRPSKLAQGADFYCFKNKIEPKWEDPVCANGGKWTMTFTKAKSDTCWLYTLLAMIGEQFDHGDDICGAVVNVRARQEKIALWTKNAANESAQLSIGKQWKEFIDYNDTIGFIFHEDAKTLDRSAKNKYTV
B1 had a dissociation constant (Kd) of 63 nM.
